The values that follow come from PMC9135616 (Biophysics and Physicobiology, 2022).

The term koff denotes a measure of how fast the partners let go of each other. Low values mean a long-lived complex, high ones a short-lived complex.

What all share (assay): SEC
On the technique in general: SEC sorts molecules by how far they enter the pores of the column.

One assay deals with T1, KaiC^C306A (Synechococcus elongatus PCC 7942, UniProt Q79PF4 1-519, C306A).
T1 sequence: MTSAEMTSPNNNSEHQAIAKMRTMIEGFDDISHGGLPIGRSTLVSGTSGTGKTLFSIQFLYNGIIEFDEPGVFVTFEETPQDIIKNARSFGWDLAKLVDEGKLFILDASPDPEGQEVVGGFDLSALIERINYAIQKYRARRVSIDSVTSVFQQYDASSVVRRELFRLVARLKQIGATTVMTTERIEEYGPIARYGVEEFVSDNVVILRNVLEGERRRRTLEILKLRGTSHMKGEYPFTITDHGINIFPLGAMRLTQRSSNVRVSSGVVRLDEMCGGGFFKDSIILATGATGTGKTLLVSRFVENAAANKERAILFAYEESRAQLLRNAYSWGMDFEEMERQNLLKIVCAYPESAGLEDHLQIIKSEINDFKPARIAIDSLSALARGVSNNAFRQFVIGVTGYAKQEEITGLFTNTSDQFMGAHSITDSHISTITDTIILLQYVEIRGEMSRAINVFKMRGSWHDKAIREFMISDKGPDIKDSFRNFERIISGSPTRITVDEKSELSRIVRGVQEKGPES

The target in a further assay is T2, KaiC^S157P (Synechococcus elongatus PCC 7942, UniProt Q79PF4 1-519, S157P).
T2 sequence: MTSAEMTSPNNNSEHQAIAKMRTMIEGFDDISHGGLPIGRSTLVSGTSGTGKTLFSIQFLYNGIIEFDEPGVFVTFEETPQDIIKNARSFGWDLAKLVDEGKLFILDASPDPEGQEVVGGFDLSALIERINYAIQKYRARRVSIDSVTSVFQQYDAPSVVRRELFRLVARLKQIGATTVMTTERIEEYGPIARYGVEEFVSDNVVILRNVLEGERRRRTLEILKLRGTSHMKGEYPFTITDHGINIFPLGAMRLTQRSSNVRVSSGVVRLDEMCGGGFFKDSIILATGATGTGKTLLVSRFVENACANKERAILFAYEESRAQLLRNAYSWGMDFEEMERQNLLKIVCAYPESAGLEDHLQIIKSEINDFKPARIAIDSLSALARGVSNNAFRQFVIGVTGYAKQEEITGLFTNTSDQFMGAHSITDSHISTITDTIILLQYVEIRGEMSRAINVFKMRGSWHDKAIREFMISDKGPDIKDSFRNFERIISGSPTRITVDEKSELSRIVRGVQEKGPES

Assay [1] deals with T3, KaiC-pSpT-mimicking S431D/T432E KaiC mutant (Synechococcus elongatus PCC 7942, UniProt Q79PF4 1-519, S431D | T432E).
T3 sequence: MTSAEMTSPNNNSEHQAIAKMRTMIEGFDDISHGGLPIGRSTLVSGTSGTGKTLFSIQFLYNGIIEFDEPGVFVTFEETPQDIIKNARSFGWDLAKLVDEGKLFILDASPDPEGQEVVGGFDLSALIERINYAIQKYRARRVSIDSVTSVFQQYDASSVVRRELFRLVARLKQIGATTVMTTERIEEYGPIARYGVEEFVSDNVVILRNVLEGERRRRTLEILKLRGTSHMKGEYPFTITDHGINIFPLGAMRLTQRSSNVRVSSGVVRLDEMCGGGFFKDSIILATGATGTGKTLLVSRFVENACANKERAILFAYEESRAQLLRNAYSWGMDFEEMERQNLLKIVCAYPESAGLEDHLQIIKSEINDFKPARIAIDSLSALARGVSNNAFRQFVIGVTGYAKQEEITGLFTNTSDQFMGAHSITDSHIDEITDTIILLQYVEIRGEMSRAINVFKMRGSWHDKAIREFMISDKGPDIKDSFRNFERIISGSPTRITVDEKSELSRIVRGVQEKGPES

A further assay has as its target T4, KaiC^F470Y (Synechococcus elongatus PCC 7942, UniProt Q79PF4 1-519, F470Y).
T4 sequence: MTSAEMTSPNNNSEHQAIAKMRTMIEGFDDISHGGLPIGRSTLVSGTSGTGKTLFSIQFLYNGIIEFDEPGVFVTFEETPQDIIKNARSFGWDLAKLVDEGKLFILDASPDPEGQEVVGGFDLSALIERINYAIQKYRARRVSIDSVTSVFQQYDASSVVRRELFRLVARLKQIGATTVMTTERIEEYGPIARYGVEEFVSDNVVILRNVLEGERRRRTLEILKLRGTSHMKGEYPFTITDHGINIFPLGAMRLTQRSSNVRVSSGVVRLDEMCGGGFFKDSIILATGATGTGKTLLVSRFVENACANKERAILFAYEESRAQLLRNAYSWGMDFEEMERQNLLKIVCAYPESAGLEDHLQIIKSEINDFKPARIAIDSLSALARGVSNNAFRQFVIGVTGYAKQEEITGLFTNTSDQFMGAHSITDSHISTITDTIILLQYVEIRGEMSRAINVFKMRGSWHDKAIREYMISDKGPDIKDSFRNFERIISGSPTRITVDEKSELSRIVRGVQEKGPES

Another assay concerns the target T5, wild-type KaiC (Synechococcus elongatus PCC 7942, UniProt Q79PF4 1-519).
T5 sequence: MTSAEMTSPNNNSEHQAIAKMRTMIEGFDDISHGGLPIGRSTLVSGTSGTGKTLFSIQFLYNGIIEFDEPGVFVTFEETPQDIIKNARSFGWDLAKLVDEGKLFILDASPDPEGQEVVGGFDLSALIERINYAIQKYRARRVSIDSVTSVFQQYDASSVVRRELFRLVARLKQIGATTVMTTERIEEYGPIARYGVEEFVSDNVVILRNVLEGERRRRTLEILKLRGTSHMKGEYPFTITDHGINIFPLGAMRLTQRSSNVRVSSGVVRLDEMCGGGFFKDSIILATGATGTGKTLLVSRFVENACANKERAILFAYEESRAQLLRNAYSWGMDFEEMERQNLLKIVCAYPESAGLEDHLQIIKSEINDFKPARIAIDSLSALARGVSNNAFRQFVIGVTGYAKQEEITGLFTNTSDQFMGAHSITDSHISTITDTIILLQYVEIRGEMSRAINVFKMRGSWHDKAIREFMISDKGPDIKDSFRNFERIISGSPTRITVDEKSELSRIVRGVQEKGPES

B1: KaiB (natural protein)
chain: MSPRKTYILKLYVAGNTPNSVRALKTLKNILEVEFQGVYALKVIDVLKNPQLAEEDKILATPTLAKVLPLPVRRIIGDLSDREKVLIGLDLLYGELQDSDDF
B1: the binding result with KaiC^C306A, in the assay with KaiC^S157P and with KaiC^F470Y was “binds” in each case. Further, the dissociation rate constant (koff) in assay [1] is 1.56e-06 s⁻¹; in the assay with wild-type KaiC it was 2.39e-05 s⁻¹.
